Measured values as given in patent US20160115235A1 (ARES TRADING S A, published 2016).

T1: human CXCR5 (human, UniProt P32302 1-372)
T1 sequence: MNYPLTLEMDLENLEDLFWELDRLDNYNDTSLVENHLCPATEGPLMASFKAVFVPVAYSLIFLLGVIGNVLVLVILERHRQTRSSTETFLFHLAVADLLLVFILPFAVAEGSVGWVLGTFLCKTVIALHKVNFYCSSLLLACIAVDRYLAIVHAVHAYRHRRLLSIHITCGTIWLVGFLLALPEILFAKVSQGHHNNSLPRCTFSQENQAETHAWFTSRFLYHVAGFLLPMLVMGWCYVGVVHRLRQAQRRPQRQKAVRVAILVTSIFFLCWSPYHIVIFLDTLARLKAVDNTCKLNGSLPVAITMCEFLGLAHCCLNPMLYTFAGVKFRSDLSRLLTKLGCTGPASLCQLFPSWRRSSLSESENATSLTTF

T2: rat CXCR5 (rat, UniProt P34997 1-374)
T2 construct: whole, on cells
T2 sequence (looked up): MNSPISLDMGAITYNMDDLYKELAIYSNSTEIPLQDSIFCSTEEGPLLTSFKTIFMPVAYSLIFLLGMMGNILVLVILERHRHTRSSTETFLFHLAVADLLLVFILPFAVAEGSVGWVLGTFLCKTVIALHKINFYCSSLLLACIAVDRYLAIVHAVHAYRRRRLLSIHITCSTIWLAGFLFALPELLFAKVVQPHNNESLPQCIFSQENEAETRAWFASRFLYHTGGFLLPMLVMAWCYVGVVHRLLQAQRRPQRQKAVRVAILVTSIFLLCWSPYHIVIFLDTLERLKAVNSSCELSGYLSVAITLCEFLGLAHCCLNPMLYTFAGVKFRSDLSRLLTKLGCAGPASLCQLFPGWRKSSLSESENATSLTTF

T3: mouse CXCR5 (mouse, UniProt Q04683 1-374)
T3 construct: whole, on cells
T3 sequence (looked up): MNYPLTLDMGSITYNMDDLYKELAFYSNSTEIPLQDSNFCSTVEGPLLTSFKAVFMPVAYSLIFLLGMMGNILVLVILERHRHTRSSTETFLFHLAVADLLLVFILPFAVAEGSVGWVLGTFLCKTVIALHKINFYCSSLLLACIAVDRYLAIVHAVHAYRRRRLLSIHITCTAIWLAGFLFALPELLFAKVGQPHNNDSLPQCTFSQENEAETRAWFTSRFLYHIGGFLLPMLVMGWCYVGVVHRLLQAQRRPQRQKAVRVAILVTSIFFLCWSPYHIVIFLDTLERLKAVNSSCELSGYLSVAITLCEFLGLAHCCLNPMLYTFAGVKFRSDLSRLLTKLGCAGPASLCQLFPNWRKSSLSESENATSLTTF

T4: cynomolgus monkey (Macaca fascicularis) CXCR5 (cynomolgus monkey (Macaca fascicularis), UniProt P32302 1-372 (human entry))
T4 construct: Full length, on stably transfected cells (CHO, L1.2) or native on cynomolgus B cells in whole blood; also called cCXCR5
T4 chain: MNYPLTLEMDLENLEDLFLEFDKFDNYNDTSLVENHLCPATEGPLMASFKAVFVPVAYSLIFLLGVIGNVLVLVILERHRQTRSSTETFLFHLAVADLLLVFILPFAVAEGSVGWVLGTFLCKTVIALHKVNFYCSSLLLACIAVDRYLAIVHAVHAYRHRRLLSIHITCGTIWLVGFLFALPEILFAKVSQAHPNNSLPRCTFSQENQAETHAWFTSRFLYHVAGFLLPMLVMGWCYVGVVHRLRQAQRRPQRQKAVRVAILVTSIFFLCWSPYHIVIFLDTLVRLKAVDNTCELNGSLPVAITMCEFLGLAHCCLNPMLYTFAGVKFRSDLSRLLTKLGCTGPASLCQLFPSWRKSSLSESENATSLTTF


Key:
human CXCR5 [1] = biological target: T1, human CXCR5; test: cell-based or functional assay
rat CXCR5 = biological target: T2, rat CXCR5; test: FACS on cells expressing species orthologues
Protocol: (§1) Binding of anti-CXCR5 antibodies to cell lines and primary cells expressing human CXCR5 or species orthologues was assessed by FACS. Briefly, approximately 1×10⁵ CXCR5 expressing cells were suspended in FACS buffer (PBS containing 1% FBS and 0.02% sodium azide) containing increasing concentrations of anti-CXCR5 antibodies ranging from 0-100 μg/ml, and incubated for 20 min at 4° C. Cells were washed and then resuspended in FACS buffer containing PE-labelled goat anti-human IgG (Jackson labs) for 20 min at 4° C. Cells were then washed 3 times and resuspended in 100 μl FACS buffer and analysed on a FACScalibur instrument (BD Sciences). MFI was plotted against antibody concentration and Graph pad prism software was used to calculate EC₅₀ values.

mouse CXCR5 = biological target: T3, mouse CXCR5; test: FACS on cells expressing species orthologues
Protocol: as §1

[2] = biological target: T4, cynomolgus monkey (Macaca fascicularis) …; test: FACS on CXCR5 expressing cells
Protocol: as §1

human CXCR5 [3] = biological target: T1, human CXCR5; test: cell-based or functional assay; remark: listed apart in the source
human CXCR5 [4] = biological target: T1, human CXCR5; test: cell-based or functional assay; remark: listed apart in the source

| Binder | Mean IC50 (nM) on L1.2/human CXCR5 cells (chemotaxis) (human CXCR5 [1]) [nM] | binding result (rat CXCR5) | binding result (mouse CXCR5) | binding result [2] | efficacy of inhibition of CXCL13-stimulated L1.2-CXCR5 chemotaxis (human CXCR5 [3]) [%] | IC50, inhibition of CXCL13-induced L1.2-CXCR5 chemotaxis (human CXCR5 [4]) [nM] | IC50, inhibition of human CXCR5-L1.2 cell chemotaxis (human CXCR5 [3]) [nM] |
| --- | --- | --- | --- | --- | --- | --- | --- |
| mAb 80A11 (antibody, V domains shown) VH: EVQLLESGGGLVQPGGSLRLSCAASGFTFSRYPMGWVRQAPGKGLEWVSSISPSGGMTRYADSVKGRFTISRDNSKNTLYLQMNSLRAEDTAVYYCARLKFTSGRTFDIWGQGTMVTVSS VL: DIQMTQSPATLSLSPGERATLSCRASQSVSSYLAWYQQKPGQAPRLLIYGASSRVPGVPDRFTGSGSETDFTLTITRLEPEDFAVYYCQLSSSSPSWTFGQGTRLEIK | 1.85 | no binding | no binding |  |  |  |  |
| mAb 80A10 (antibody, V domains shown) VH: EVQLLESGGGLVQPGGSLRLSCAASGFTFSMYVMKWVRQAPGKGLEWVSGIRSSGGDTSYADSVKGRFTISRDNSKNTLYLQMNSLRAEDTAVYYCARQSRYCNGGSCYSRAFDIWGQGTMVTVSS VL: QPPSASGTPGQRVTISCFGSNSNIGSTYAYWYQQVPGTAPKLLIYRNNQRPSGVPDRFSGSKSGTSASLAISGLRSEDEADYYCAAWDVNLSGHWVFGGGTKLTVLG | 4.7 | no binding | no binding |  |  |  |  |
| mAb 42F03 (antibody, human IgG1, V domains shown) VH: EVQLLESGGGLVQPGGSLRLSCAASGFTFSWYPMTWVRQAPGKGLEWVSYIRSSGGFTKYADSVKGRFTISRDNSKNTLYLQMNSLRAEDTAVYYCARGLYRWGQGTLVTVSS VL: IQMTQSPGTLSLSPGERATLSCRASQSVSNNYLAWYQQKPGQAPRLLISGASRRATDIADRFSGSGSGTDFTLTISRLEPEDFAVYYCQQYDSFPLTFGGGTKVEIK | 1.86 | no binding | no binding |  |  |  |  |
| mAb 80D11 (antibody, V domains shown) VH: EVQLLESGGGLVQPGGSLRLSCAASGFTFSHYWMQWVRQAPGKGLEWVSSISSSGGKTRYADSVKGRFTISRDNSKNTLYLQMNSLRAEDTAVYYCATAGYSSGWGQGTLVTVSS VL: QSALTQPASVSGSPGQSITISCTGTSSDVGGYNYLSWYQQHPGKAPKLMIYGVSNRPSGVSTRFSGSKSGNTASLTISGLQAEDEADYYCSSYTSTGTRVFGGGTRLTVL | 37 | no binding | no binding | binds |  |  |  |
| mAb 80B09 (antibody, V domains shown) VH: EVQLLESGGGLVQPGGSLRLSCAASGFTFSKYNMLWVRQAPGKGLEWVSVISPSGGRTSYADSVKGRFTISRDNSKNTLYLQMNSLRAEDTAVYYCARHTSITMFDYWGQGTLVTVSS VL: QSALTQPASVSGSPGQSITISCTGTSSDIGSYNYVSWYQQHPGRAPKVMIYDVTYRPSGVSNRFSGSKSGNTASLTISGLQAEDEADYYCGSYRKSSLYVFGTGTKVTVL | 251 | no binding | no binding |  |  |  |  |
| mAb 12A01 (antibody, V domains shown) VH: EVQLLESGGGLVQPGGSLRLSCAASGFTFSRYVMVWVRQAPGKGLDWVSGISPSGGVTRYADSVKGRFTISRDNSKNTLYLQMNSLRAEDTAMYYCARIRKEMTTISYFFDYWGQGTLVTVSS VL: DIQMTQSPDSLSASVGDRVTITCRASQGVDIYVAWYQQKPGKVPKLLMHSASTLASGVPSRFSGRGSGTDFTLTINSLQAEDVATYYCQSHNSAVVTFGQGTRLEIK | 2200 | no binding | no binding | binds |  |  |  |
| anti-CXCR5 40C01-VH1-Vk3 as IgG4 (antibody) heavy: not shown light: DIQMTQSPSSLSASVGDRVTITCRASQGVDAYVAWYQQKPGKVPKLLIYSTSTLASGVPSRFSGSGSGTDFTLTISSLQPEDVATYYCQSHNAAVVTFGQGTRLEIKRTVAAPSVFIFPPSDEQLKSGTASVVCLLNNFYPREAKVQWKVDNALQSGNSQESVTEQDSKDSTYSLSSTLTLSKADYEKHKVYACEVTHQGLSSPVTKSFNRGEC |  |  |  |  | 100 | 2.1 |  |
| anti-CXCR5 40C01-VH2-Vk3 as IgG4 (antibody) heavy: not shown light: DIQMTQSPSSLSASVGDRVTITCRASQGVDAYVAWYQQKPGKVPKLLIYSTSTLASGVPSRFSGSGSGTDFTLTISSLQPEDVATYYCQSHNAAVVTFGQGTRLEIKRTVAAPSVFIFPPSDEQLKSGTASVVCLLNNFYPREAKVQWKVDNALQSGNSQESVTEQDSKDSTYSLSSTLTLSKADYEKHKVYACEVTHQGLSSPVTKSFNRGEC |  |  |  |  | 100 | 0.103 |  |
| recombinant Fab fragment of 40C01-VH1-Vk3 (Fab, V domains shown) VH: EVQLLESGGGLVQPGGSLRLSCAASGFTFSRYVMVWVRQAPGKGLEWVSGISPSGGVTRYAASVKGRFTISRDNSKNTLYLQMNSLRAEDTAVYYCARIRKEMTTISYFFDYWGQGTLVTVSS VL: DIQMTQSPSSLSASVGDRVTITCRASQGVDAYVAWYQQKPGKVPKLLIYSTSTLASGVPSRFSGSGSGTDFTLTISSLQPEDVATYYCQSHNAAVVTFGQGTRLEIK |  |  |  |  |  |  | 288 |
| recombinant Fab fragment of 40C01-VH2-Vk3 (Fab, V domains shown) VH: EVQLLESGGGLVQPGGSLRLSCAASGFTFSRSVMVWVRQAPGKGLEWVSGISPSGGVTRYAASVKGRFTISRDNSKNTLYLQMNSLRAEDTAVYYCARIRKEKTTISYFFDYWGQGTLVTVSS VL: DIQMTQSPSSLSASVGDRVTITCRASQGVDAYVAWYQQKPGKVPKLLIYSTSTLASGVPSRFSGSGSGTDFTLTISSLQPEDVATYYCQSHNAAVVTFGQGTRLEIK |  |  |  |  |  |  | 20.9 |
| mAb 40C01 (antibody, V domains shown, also called 40C01 VH-VL; 40C01 parental molecule) VH: EVQLLESGGGLVQPGGSLRLSCAASGFTFSRYVMVWVRQAPGKGLDWVSGISPSGGVTRYADSVKGRFTISRDNSKNTLYLQMNSLRAEDTAMYYCARIRKEMTTISYFFDYWGQGTLVTVSS VL: DIQMTRAPDSLSASVGDRVTITCRASQGVDIYVAWYQQKPGKAPKLLMHSASTLASGVPSRFSGRGSGTDFTLTINSLQAEDVATYYCQSHNSAVVTFGQGTRLEIK | 5.6 | no binding | no binding | binds |  |  |  |
